Sequences and labels used below:
B1: Fab clone 2b-3 (Fab, V domains shown)
VH: EVQLLESGAEVKKPGASVTVSCKASGYSFSDYYIHWVRQAPGQGLEWMGIINPSAGTTTYKQKFQHRVTLTRDTSTNTAYMKLYNLTPDDTAIFFCARGSGGSRSEYDYWGQGTLVTVSS
VL: AELTQSPSSLSASVGDGVTITCRASQSISTYLNWYQQKPGKAPKLLMYAASTLQSGVPSRFSGSGSGTDFTLTISSLQPEDFAAYYCQQARSFPYTFGQGTRLEIR
notes: Human Fab (gamma1 Fd + kappa), crude periplasmic preparation, approx. 1.0 ug Fab/ml
B2: Fab clone 2b-5 (Fab, V domains shown)
VH: EVQLLESGGGVVQPGRSLRLSCAASGFTLSTYAMHWVRQAPGRGLEWVAVISYDGDHKFYADSMKGRFAISRDTSTNTLYLEVNSLKIEDTAVYYCARDRDRRGGYVFSTTGGLDSWGQGTLVTVSS
VL: AELTQSPLSLAVTPGEPASISCRTSQSLLHSNGYTYLDWYLQKPGQSPQLLIYLASNRASGVPDRFSGSGSGTDFTLEISRVEAEDVGVYYCMQPLQTPVTFGQGTKVEVK
notes: Human Fab (gamma1 Fd + kappa), crude periplasmic preparation, approx. >1.0 ug Fab/ml
B3: Fab clone 2b-4 (Fab, V domains shown)
VH: EVQLLESGGEVKKPGSSVKVSCKASGGPFSSYAIHWVRQAPGQGLEWMGAIIPFLGRAKYAQKFEGRVTITADGSMSTAYMEVSSLRSDDTAMYYCARDRGELLLRMDVWGQGTAVTVSS
VL: AELTQSPAFMSATPGDKVNISCKASQDIDDDMNWYQQKPGEAAIFIIQEATTLVPGIPPRFSGSGYGTDFTLTINNIESEDAAYYFCLQHDNFPLTFGQGTKVEIK
notes: Human Fab (gamma1 Fd + kappa), crude periplasmic preparation, approx. 0.68 ug Fab/ml
B4: Fab clone 2b-7 (Fab, V domains shown)
VH: VQLLEQSGAEVKKPGESLKISCRASGYSFSLFWVAWVRQMPGQGLEWMAIIYPGDSDTTYSPSFEGQVNVSVDKPISTAYLQWSSLKASDTAMYYCARRRSSDRRDAFDIWGPGTMVTVSS
VL: B3 VL
notes: Human Fab (gamma1 Fd + kappa), crude periplasmic preparation, approx. 0.54 ug Fab/ml
B5: Fab clone 2b-10 (Fab, V domains shown)
VH: EVQLLESGGGVVQPGRSLKLSCTASTFTFTNYAMHWVRQAPGKGLEWVALISNDGSKTYYTDSVRGRFTISRDNSKNTLFLQMNSLRTEDTAVYHCARVKLQGSFNVYYYYGLDVWGQGTTVTVSS
VL: AELTQSPLSLPVTPGEPASISCRSSQSLLHSDGYNYFDWYLQKPGQSPQLLIYLGSNRASGVPDRFSGSGSDTDFTLKISRVEAEDVGVYYCMQTLQTLTFGGGTKLEIK
notes: as for B2
B6: Fab clone 1:4 (Fab, V domains shown)
VH: EVQLLESGPGLVKPSETLSLTCTVSNGSMSNYCWSWIRQSPGKGLEWIGYIYYSGSTSYNPSLRSRVALLVDTSKNQFSLKLTSVTTADTAVYYCARDLSARGGTRNRDALDVWGQGTQVTVSA
VL: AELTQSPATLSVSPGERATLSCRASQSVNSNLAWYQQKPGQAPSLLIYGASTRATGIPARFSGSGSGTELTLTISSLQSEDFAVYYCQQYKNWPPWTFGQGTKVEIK
notes: Human Fab (gamma1 Fd + kappa), crude periplasmic preparation, approx. 0.01 ug Fab/ml

T1 sequence (P26664 192-383 limits assumed, chain 1 of 2): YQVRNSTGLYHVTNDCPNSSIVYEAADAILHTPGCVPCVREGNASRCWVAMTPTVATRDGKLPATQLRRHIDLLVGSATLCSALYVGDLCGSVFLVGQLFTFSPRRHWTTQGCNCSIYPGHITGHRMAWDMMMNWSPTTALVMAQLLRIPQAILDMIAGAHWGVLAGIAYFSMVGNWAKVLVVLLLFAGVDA
T1 sequence (P26664 384-746 limits assumed, chain 2 of 2): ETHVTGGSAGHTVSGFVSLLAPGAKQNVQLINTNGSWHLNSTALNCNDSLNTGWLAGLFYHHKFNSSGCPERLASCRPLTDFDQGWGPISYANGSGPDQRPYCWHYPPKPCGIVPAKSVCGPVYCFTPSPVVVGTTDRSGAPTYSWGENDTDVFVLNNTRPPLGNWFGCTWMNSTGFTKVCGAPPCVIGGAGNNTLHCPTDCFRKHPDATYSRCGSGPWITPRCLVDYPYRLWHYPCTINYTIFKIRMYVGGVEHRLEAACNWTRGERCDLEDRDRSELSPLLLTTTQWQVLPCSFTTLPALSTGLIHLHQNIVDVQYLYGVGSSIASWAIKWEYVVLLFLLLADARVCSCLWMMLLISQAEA

One assay addresses T1, recombinant E1/E2 heterodimer protein (genotype 1a) (hepatitis C virus genotype 1a, UniProt P26664 192-383; P26664 384-746, limits assumed).
T1 construct: also called E1/E2 in complex; recombinant E1/E2 antigen
Briefly: ELISA, E1/E2 heterodimer coated; crude periplasmic Fab.
For the molecule B1, the OD405 nm worked out at 0.19 OD405 nm.
Turning to B2, the OD405 nm was 1.4 OD405 nm.
The same measure, in the same setting: the same measure for B3: 0.09 OD405 nm; for B4: 0.32 OD405 nm; for B5: 0.11 OD405 nm.
Still for that read-out and setting: to B6 belongs 0.67 OD405 nm.

The target of a further assay is T2, recombinant soluble HCV E1 protein (hepatitis C virus).
T2 construct: It is not the cell-surface E1-myc construct (aa 174-359 of H77c) that was used for phage selection; also called recombinant E1; soluble E1 protein
Briefly: ELISA, recombinant E1 captured on GNA lectin; crude periplasmic Fab.
For B1, the OD405 nm is 1.18 OD405 nm.
Consider B2, for which the OD405 nm amounted to 2.21 OD405 nm.
For B3, the OD405 nm came out at 0.11 OD405 nm.
On the same count and under the same terms, the same measure for B4: 0.47 OD405 nm; for B5: 0.48 OD405 nm; for B6: 0.78 OD405 nm.

Source of the values: patent publication US20040208887A1 (MOLECULES OF MAN, published 2004).
